Results from publication PMC13071878 (2026).

Target: human angiotensin-converting enzyme 2, extracellular catalytic domain, produced in mammalian cells … (human, UniProt Q9BYF1 19-615)
Assay: FACS

Sequence of human angiotensin-converting enzyme 2, extracellular catalytic domain, produced in mammalian cells … (Q9BYF1 19-615): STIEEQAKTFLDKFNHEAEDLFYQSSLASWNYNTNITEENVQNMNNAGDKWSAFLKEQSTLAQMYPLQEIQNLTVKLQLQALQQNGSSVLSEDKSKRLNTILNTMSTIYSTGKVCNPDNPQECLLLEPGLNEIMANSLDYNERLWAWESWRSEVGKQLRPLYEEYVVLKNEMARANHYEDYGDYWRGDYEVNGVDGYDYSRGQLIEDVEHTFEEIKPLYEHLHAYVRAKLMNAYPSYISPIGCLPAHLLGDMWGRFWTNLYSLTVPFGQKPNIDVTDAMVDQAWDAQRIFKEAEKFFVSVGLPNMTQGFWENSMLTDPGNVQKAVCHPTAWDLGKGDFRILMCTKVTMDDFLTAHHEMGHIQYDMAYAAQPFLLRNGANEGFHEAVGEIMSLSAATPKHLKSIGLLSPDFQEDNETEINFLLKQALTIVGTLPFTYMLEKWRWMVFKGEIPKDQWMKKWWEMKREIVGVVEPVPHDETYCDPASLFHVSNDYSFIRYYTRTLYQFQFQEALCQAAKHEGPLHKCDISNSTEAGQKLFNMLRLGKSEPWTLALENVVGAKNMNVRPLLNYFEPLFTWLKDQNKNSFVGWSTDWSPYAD

B1: GR1.9 (N8A), yeast-displayed alanine mutant of GR1.4 (peptide)
peptide: ACEPLGYALFLCSG
With B1 the Kd was > 1000 nM.
